Experimental data: patent publication US20230212319A1, “NOVEL ANTIGEN BINDING DOMAINS AND SYNTHETIC ANTIGEN RECEPTORS INCORPORATING THE SAME” (University of Southern California, priority 2020, published 2023)

B1: 22085 (protein)
chain: MALPVTALLLPLALLLHAARPQLQLQESGPGLVKPSETLSLTCTVSGDSISSGDYYWGWIRQPPGKGLEWIGHIYYSGVTYYNPSLKSRVTISVDTSRNQFSLKLSSVTAADTAVYYCTREDSSNWRSRGQGTLVTVSSLEGSGGGGSGGGGSGEDLKNVFPPEVAVFEPSEAEISHTQKATLVCLATGFYPDHVELSWWVNGKEVHSGVCTDPQPLKEQPALNDSRYCLSSRLRVSATFWQNPRNHFRCQVQFYGLSENDEWTQDRAKPVTQIVSAEAWGRADCGFTSESYQQGVLSATILYEILLGKATLYAVLVSALVLMAMVKRKDSRGRAKRSGSGATNFSLLKQAGDVEENPGPTSMDWIWRILFLVGAATGAHSFEVQLLESGGGLIQPGGSLRLSCAASGFTFSSHAMTWVRQAPGKGLEWVSAISGSGDYTHYADSVKGRFTISRDNSKNTVYLQMNSLRAEDSAVYYCAKDEDGGSLLGHRGQGTLVTVSSTRGSIPEDTFFPSPESSCDVKLVEKSFETDTNLNFQNLSVIGFRILLLKVAGFNLLMTLRLWSS
B2: 21993 (protein)
chain: MALPVTALLLPLALLLHAARPQLQLQESGPGLVKPSETLSLTCTVSGDSISSGDYYWGWIRQPPGKGLEWIGHIYYSGVTYYNPSLKSRVTISVDTSRNQFSLKLSSVTAADTAVYYCTREDSSNWRSRGQGTLVTVSSLEDLKNVFPPEVAVFEPSEAEISHTQKATLVCLATGFYPDHVELSWWVNGKEVHSGVCTDPQPLKEQPALNDSRYCLSSRLRVSATFWQNPRNHFRCQVQFYGLSENDEWTQDRAKPVTQIVSAEAWGRADCGFTSESYQQGVLSATILYEILLGKATLYAVLVSALVLMAMVKRKDSRGRAKRSGSGATNFSLLKQAGDVEENPGPTSMDWIWRILFLVGAATGAHSFEQLQLQESGPGLVKPSETLSLTCTVSGGSISSGDYYWGWIRQPPGKGLEWIGHIYYSGATYYNPSLKSRVTISVDTSRNQFSLKLSSVTAADTAVYYCTRDDSSNWRSRGQGTLVTVSSTRIQNPDPAVYQLRDSKSSDKSVCLFTDFDSQTNVSQSKDSDVYITDKCVLDMRSMDFKSNSAVAWSNKSDFACANAFNNSIIPEDTFFPSPESSCDVKLVEKSFETDTNLNFQNLSVIGFRILLLKVAGFNLLMTLRLWSSRAKRSGSGVKQTLNFDLLKLAGDVESNPGPSRGHMTEYKPTVRLATRDDVPRAVRTLAAAFADYPATRHTVDPDRHIERVTELQELFLTRVGLDIGKVWVADDGAAVAVWTTPESVEAGAVFAEIGPRMAELSGSRLAAQQQMEGLLAPHRPKEPAWFLATVGVSPDHQGKGLGSAVVLPGVEAAERAGVPAFLETSAPRNLPFYERLGFTVTADVEVPEGPRTWCMTRKPGA
B3: 22084 (protein)
chain: MALPVTALLLPLALLLHAARPQLQLQESGPGLVKPSETLSLTCTVSGDSISSGDYYWGWIRQPPGKGLEWIGHIYYSGVTYYNPSLKSRVTISVDTSRNQFSLKLSSVTAADTAVYYCTREDSSNWRSRGQGTLVTVSSLDSGGGGSFEQLQLQESGPGLVKPSETLSLTCTVSGGSISSGDYYWGWIRQPPGKGLEWIGHIYYSGATYYNPSLKSRVTISVDTSRNQFSLKLSSVTAADTAVYYCTRDDSSNWRSRGQGTLVTVSSTRDKTHTCPPCPAIPEDTFFPSPESSCDVKLVEKSFETDTNLNFQNLSVIGFRILLLKVAGFNLLMTLRLWSS
B4: 21995 (protein)
chain: MALPVTALLLPLALLLHAARPQLQLQESGPGLVKPSETLSLTCTVSGDSISSGDYYWGWIRQPPGKGLEWIGHIYYSGVTYYNPSLKSRVTISVDTSRNQFSLKLSSVTAADTAVYYCTREDSSNWRSRGQGTLVTVSSLEDLKNVFPPEVAVFEPSEAEISHTQKATLVCLATGFYPDHVELSWWVNGKEVHSGVCTDPQPLKEQPALNDSRYCLSSRLRVSATFWQNPRNHFRCQVQFYGLSENDEWTQDRAKPVTQIVSAEAWGRADCGFTSESYQQGVLSATILYEILLGKATLYAVLVSALVLMAMVKRKDSRGRAKRSGSGATNFSLLKQAGDVEENPGPTSMDWIWRILFLVGAATGAHSFEVQLLESGGGLVQPGGSLRLSCAASGFIFSIYAMSWVRQAPGKGLEWVSGISGSGVNTYYADSVKGRFIISRDNSRNTVYLQMNSLRADDTAVYHCANGKGWDGNTWYEDYRGQGTLVTVSSTRIQNPDPAVYQLRDSKSSDKSVCLFTDFDSQTNVSQSKDSDVYITDKCVLDMRSMDFKSNSAVAWSNKSDFACANAFNNSIIPEDTFFPSPESSCDVKLVEKSFETDTNLNFQNLSVIGFRILLLKVAGFNLLMTLRLWSSRAKRSGSGVKQTLNFDLLKLAGDVESNPGPSRGHMTEYKPTVRLATRDDVPRAVRTLAAAFADYPATRHTVDPDRHIERVTELQELFLTRVGLDIGKVWVADDGAAVAVWTTPESVEAGAVFAEIGPRMAELSGSRLAAQQQMEGLLAPHRPKEPAWFLATVGVSPDHQGKGLGSAVVLPGVEAAERAGVPAFLETSAPRNLPFYERLGFTVTADVEVPEGPRTWCMTRKPGA
B5: 22001 (protein)
chain: MALPVTALLLPLALLLHAARPQLQLQESGPGLVKPSETLSLTCTVSGDSISSGDYYWGWIRQPPGKGLEWIGHIYYSGVTYYNPSLKSRVTISVDTSRNQFSLKLSSVTAADTAVYYCTREDSSNWRSRGQGTLVTVSSLEPGGGGSPEDLKNVFPPEVAVFEPSEAEISHTQKATLVCLATGFYPDHVELSWWVNGKEVHSGVCTDPQPLKEQPALNDSRYCLSSRLRVSATFWQNPRNHFRCQVQFYGLSENDEWTQDRAKPVTQIVSAEAWGRADCGFTSESYQQGVLSATILYEILLGKATLYAVLVSALVLMAMVKRKDSRGRAKRSGSGATNFSLLKQAGDVEENPGPTSMDWIWRILFLVGAATGAHSFEVQLLESGGGLIQPGGSLRLSCAASGFTFSSHAMTWVRQAPGKGLEWVSAISGSGDYTHYADSVKGRFTISRDNSKNTVYLQMNSLRAEDSAVYYCAKDEDGGSLLGHRGQGTLVTVSSTRIQNPDPAVYQLRDSKSSDKSVCLFTDFDSQTNVSQSKDSDVYITDKCVLDMRSMDFKSNSAVAWSNKSDFACANAFNNSIIPEDTFFPSPESSCDVKLVEKSFETDTNLNFQNLSVIGFRILLLKVAGFNLLMTLRLWSSRAKRSGSGVKQTLNFDLLKLAGDVESNPGPSRGHMTEYKPTVRLATRDDVPRAVRTLAAAFADYPATRHTVDPDRHIERVTELQELFLTRVGLDIGKVWVADDGAAVAVWTTPESVEAGAVFAEIGPRMAELSGSRLAAQQQMEGLLAPHRPKEPAWFLATVGVSPDHQGKGLGSAVVLPGVEAAERAGVPAFLETSAPRNLPFYERLGFTVTADVEVPEGPRTWCMTRKPGA
B6: SEQ ID NO: 22254: bispecific SAR on CD19 targeted SIR backbone comprising the receptor binding domain of the ligand APRIL (protein)
chain: MALPVTALLLPLALLLHAARPACVLHLVPINATSKDDSDVTEVMWQPALRRGRGLQAQGYGVRIQDAGVYLLYSQVLFQDVTFTMGQVVSREGQGRQETLFRCIRSMPSHPDRAYNSCYSAGVFHLHQGDILSVIIPRARAKLNLSPHGTFLGFVKLGTGGGGSGGGGSGGGGSEFDIQMTQSPSSLSASVGDRVTITCKASDHINNWLAWYQQKPGQAPKLLIYGATTLETGVPSRFSGSGSGTDYTLTISSLQPEDFATYYCQQSWNTPWTFGQGTKLEIKRLEDLKNVFPPEVAVFEPSEAEISHTQKATLVCLATGFYPDHVELSWWVNGKEVHSGVCTDPQPLKEQPALNDSRYCLSSRLRVSATFWQNPRNHFRCQVQFYGLSENDEWTQDRAKPVTQIVSAEAWGRADCGFTSESYQQGVLSATILYEILLGKATLYAVLVSALVLMAMVKRKDSRGRAKRSGSGATNFSLLKQAGDVEENPGPTSATMDWIWRILFLVGAATGAHSGPEVQLVESGGGLVQAGGSLRLSCAASGRTFSMGWFRQAPGKEREFVAAITYSGGSPYYADSVKGRFTISRDNAKNTVYLQMNSLKPEDTAVYYCAANPTYGSDWNAENWGQGTQVTVSSGSGGGGSGGGGSGGGGSFEQVQLQQPGAELVKPGASVKMSCKASGYAFSSYWINWMKQKPGQGLEWIGQIYPGDGDTNYNGKFKGRATLTADTSSSTAYMQLSSLTSEDSAVYFCARSITTVVGCAMDYWGQGTSVTVSSTRIQNPDPAVYQLRDSKSSDKSVCLFTDFDSQTNVSQSKDSDVYITDKCVLDMRSMDFKSNSAVAWSNKSDFACANAFNNSIIPEDTFFPSPESSCDVKLVEKSFETDTNLNFQNLSVIGFRILLLKVAGFNLLMTLRLWSSRAKRSGSGVKQTLNFDLLKLAGDVESNPGPSRGHMTEYKPTVRLATRDDVPRAVRTLAAAFADYPATRHTVDPDRHIERVTELQELFLTRVGLDIGKVWVADDGAAVAVWTTPESVEAGAVFAEIGPRMAELSGSRLAAQQQMEGLLAPHRPKEPAWFLATVGVSPDHQGKGLGSAVVLPGVEAAERAGVPAFLETSAPRNLPFYERLGFTVTADVEVPEGPRTWCMTRKPGA

test system: RAJI cells; experiment: JNG assay, co-culture with RAJI cells; type: cell-based; conditions: JNG cells expressing construct, co-culture with Raji
Description: Cellular supernatant is collected and assayed for the induction of cytokines (e.g., IL2).
JNG (Jurkat cells expressing EGFP under an NFAT promoter) were infected with lentiviral vectors encoding different single chain and multi-chain SARs by spinfection in the presence of 8 µg/ml of Polybrene® (Sigma, Catalog no. H9268). The Jurkat-NFAT-GFP cells are engineered in such a way that the IL-2 promoter, which carries NFAT binding sites, is cloned upstream of the GFP gene. These cells have been used to study signaling via TCR and CAR. The different SARs were stably expressed in Jurkat NFAT-GFP cells by lentiviral mediated gene transfer, followed by selection with puromycin or blasticidin. No drug selection was used in case the construct lacked an antibiotic resistance gene. The SAR-expressing Jurkat-NFAT-GFP cells were cocultured with the target cells at E:T ratio of approximately 1:2 for approximately 4 hours to 18 hours. When the interaction between SIRs and their target antigen results in activation of the NFAT pathway, GFP expression is induced. […] GFP expression was monitored by FACS analysis. The Jurkat-NFAT-GFP (parental) cells were used as control. The structure of different constructs can be determined based on their names. […] The sequence of the other constructs in the table can be similarly determined from their names and by referring to the different Tables of this disclosure that provide the names and SEQ ID NO of the different modules. Alternatively, the composition and modular architecture of the different SAR constructs can be determined from their sequences by bioinformatics tools, including using nucleic acid and amino acids homology searches. A SAR is considered positive in the assay in case the SAR expressing Jurkat-NFAT-GFP cells show greater % GFP positive cells when cultured with the target cell line as compared to parental Jurkat-NFAT-GFP cells. […] In general, the number +/-, +, 2+, 3+, 4+, 5+ refer to approximately 5%, 10%, 20%, 30%, 40% and 50% GFP positive cells. The % of GFP induction in the above assay is dependent not only the relative strength of the SAR but also, among other factors, on the relative level of expression of the SAR in the JNG cells and the relative level of expression of the target antigen in the target cell line. To control for the difference in gene transduction efficiency of the different SAR constructs, the experiment was conducted with JNG cells transduced with SAR constructs co-expressing a drug resistance gene (e.g., puromycin or PAC) followed by drug selection to generate a stable population of SAR-expressing cells. It is to be noted that the drug resistance gene (e.g., PAC) in the SAR constructs is optional and in vivo studies were conducted with SAR constructs lacking the PAC gene.

Molecule	NFAT-GFP ASSAY: Raji
B1	+/- (refer to approximately 5%, 10%, 20%, 30%, 40% and 50% GFP positive cells)
B2	Raji (+/-) (refer to approximately 5%, 10%, 20%, 30%, 40% and 50% GFP positive cells)
B3	+/- (refer to approximately 5%, 10%, 20%, 30%, 40% and 50% GFP positive cells)
B4	+ (refer to approximately 5%, 10%, 20%, 30%, 40% and 50% GFP positive cells)
B5	+/- (refer to approximately 5%, 10%, 20%, 30%, 40% and 50% GFP positive cells)

same assay, conditions: co-culture with RAJI cells

Molecule	GFP induction / activity
B6	retained the ability to respond
